Target: T1, TRAF2 (UniProt Q12933 1-501, limits assumed)
T1 sequence (looked up): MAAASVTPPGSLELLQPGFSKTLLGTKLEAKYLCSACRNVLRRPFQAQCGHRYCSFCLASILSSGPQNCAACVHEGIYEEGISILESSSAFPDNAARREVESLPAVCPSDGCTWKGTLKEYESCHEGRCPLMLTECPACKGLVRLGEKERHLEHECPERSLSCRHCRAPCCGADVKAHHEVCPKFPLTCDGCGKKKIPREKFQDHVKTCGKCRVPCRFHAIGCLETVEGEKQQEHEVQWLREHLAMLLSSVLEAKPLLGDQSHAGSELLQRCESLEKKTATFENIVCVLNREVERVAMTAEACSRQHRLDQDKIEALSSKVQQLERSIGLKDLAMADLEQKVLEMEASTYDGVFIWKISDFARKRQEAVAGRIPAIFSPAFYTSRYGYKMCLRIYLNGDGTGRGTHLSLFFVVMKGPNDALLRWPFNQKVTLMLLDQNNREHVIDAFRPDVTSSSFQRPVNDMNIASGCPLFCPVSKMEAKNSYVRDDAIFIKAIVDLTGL
Assay: TRAF2 immunoprecipitation from transfected HEK293 cells, anti-Myc immunoblot (FIG. 9A)
Experimental: To understand how DX2 compromises the apoptotic activity of TNF-a signaling, we evaluated the ability of DX2 to compete with AIMP2 for the interaction with TRAF2 and to affect NF-kB-dependent transcriptional activity. For the co-immunoprecipitation assay, HEK293 cells were transfected with 0, 1 or 2 μg of Myc-tagged DX2 or AIMP2 expression plasmid (FIG. 9A). The expression of endogenous (Endo) and exogenous (Exo) AIMP2 and DX2 was confirmed by immunoblotting of whole cell lysates (WCL) with anti-AIMP2 antibody. TRAF2 was immunoprecipitated with its specific antibody and AIMP2 or DX2 bound to TRAF2 were detected with anti-Myc antibody.

binding result: binds
B1: Myc-tagged DX2 (other)
chain: MPMYQVKPYHGGGAPLRVELPTCMYRLPNVHGRSYGPAPGAGHVQDYGALKDIVINANPASPPLSLLVLHRLLCEHFRVLSTVHTHSSVKSVPENLLKCFGEQNKKQPRQDYQLGFTLIWKNVPKTQMKFSIQTMCPIEGEGNIARFLFSLFGQKHNAVNATLIDSWVDIAIFQLKEGSSKEKAAVFRSMNSALGKSPWLAGNELTVADVVLWSVLQQIGGCSVTVPANVQRWMRSCENLAPFNTALKLLK
notes: also called Myc-DX2; not shown: Myc tag

— US20250281573A1 (GENEROATH, published 2025)
